Test results from paper PMC9017247.

Biological target: SARS-CoV-2 viral particles (spike protein as shown on the whole virus) (SARS-CoV-2)

recombinant griffithsin lectin protein (rGRFT) (from UniProt P84801 1-121) (natural protein)
IC50 of rGRFT on SARS-CoV-2 (Ank2, Wuhan like) infection of Vero E6 cells, cytopathic effect reading; rGRFT from 6 uM to 15.4 pM mixed with infectious particles: 0.0332 µM
